Reference: the supplement of paper PMC9112550, “Optimization of the antimicrobial peptide Bac7 by deep mutational scanning” (BMC Biology, 2022)

System: Escherichia coli TOP10
Assay: shrunken log2 fold change of peptide-encoding DNA abundance (4.5 h post-induction vs induction); higher = less antimicrobial activity (less host growth inhibition)
Settings: time post-induction: 4.5 h; library: site-saturation at positions 5, 18, 19, 20
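Note: peptides expressed intracellularly from a pBAD plasmid library in pooled LB shake-flask culture, induced with 0.3% L-arabinose, DNA abundance read by NGS, three biological replicates, DESeq2 with apeglm shrinkage.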

Sequence	shrunken log2 fold change
RRIRMRPPRLPRPRPRPASKPRP	0.0582
RRIRGRPPRLPRPRPRPEAVPRP	2.27
RRIRNRPPRLPRPRPRPFLCPRP	-0.966
RRIRCRPPRLPRPRPRPRHPPRP	0.11
RRIRHRPPRLPRPRPRPSPIPRP	-0.175
RRIRYRPPRLPRPRPRPNRTPRP	-0.211
RRIRVRPPRLPRPRPRPMMRPRP	0.837
RRIRWRPPRLPRPRPRPCTLPRP	-0.842
RRIRKRPPRLPRPRPRPKYKPRP	-0.19
RRIRQRPPRLPRPRPRPAKIPRP	0.00963
RRIRHRPPRLPRPRPRPSMGPRP	-0.149
RRIRGRPPRLPRPRPRPAWRPRP	0.934
RRIRARPPRLPRPRPRPWRCPRP	0.0472
RRIRRRPPRLPRPRPRPYLMPRP	-0.146
RRIRMRPPRLPRPRPRPELHPRP	0.397
RRIRHRPPRLPRPRPRPSWFPRP	-0.408
RRIRYRPPRLPRPRPRPEWPPRP	-0.0693
RRIRYRPPRLPRPRPRPSYSPRP	-0.438
RRIRDRPPRLPRPRPRPILGPRP	-0.0116
RRIRGRPPRLPRPRPRPQRCPRP	0.0883
RRIRDRPPRLPRPRPRPGETPRP	0.0408
RRIRHRPPRLPRPRPRPMAGPRP	-0.0581
RRIRKRPPRLPRPRPRPHAGPRP	0.143
RRIRWRPPRLPRPRPRPNCMPRP	-0.302
RRIRCRPPRLPRPRPRPHALPRP	-0.0688

Sequence	shrunken log2 fold change
RRIRRRPPRLPRPRPRPFAAPRP	0.98
RRIRWRPPRLPRPRPRPRWPPRP	0.598
RRIRCRPPRLPRPRPRPHHWPRP	-0.0852
RRIRNRPPRLPRPRPRPQFLPRP	0.106
RRIRARPPRLPRPRPRPIWDPRP	0.264
RRIRYRPPRLPRPRPRPVTQPRP	3.05
RRIRCRPPRLPRPRPRPDVLPRP	-0.489
RRIRARPPRLPRPRPRPAFLPRP	0.486
RRIRYRPPRLPRPRPRPYDRPRP	-0.039
RRIRTRPPRLPRPRPRPAIQPRP	-0.216
RRIRIRPPRLPRPRPRPEVIPRP	-0.0583
RRIRLRPPRLPRPRPRPTNMPRP	-0.537
RRIRKRPPRLPRPRPRPQVKPRP	0.0274
RRIRNRPPRLPRPRPRPTDLPRP	-0.228
RRIRIRPPRLPRPRPRPVHTPRP	-0.4
RRIRQRPPRLPRPRPRPLFLPRP	-0.65
RRIRIRPPRLPRPRPRPMSYPRP	0.0721
RRIRDRPPRLPRPRPRPGNYPRP	-0.0159
RRIRVRPPRLPRPRPRPFTGPRP	-0.115
RRIRGRPPRLPRPRPRPPEVPRP	1.02
RRIRCRPPRLPRPRPRPPGMPRP	0.326
RRIRCRPPRLPRPRPRPPGDPRP	0.346
RRIRSRPPRLPRPRPRPYEMPRP	-0.234
RRIRMRPPRLPRPRPRPTGHPRP	0.63
RRIRPRPPRLPRPRPRPINYPRP	-0.402

Sequence	shrunken log2 fold change
RRIRFRPPRLPRPRPRPLIAPRP	-0.234
RRIRVRPPRLPRPRPRPPAYPRP	0.0576
RRIRYRPPRLPRPRPRPQPAPRP	0.0964
RRIRERPPRLPRPRPRPKDIPRP	0.0209
RRIRWRPPRLPRPRPRPISYPRP	-0.0222
RRIRERPPRLPRPRPRPEPEPRP	0.475
RRIRKRPPRLPRPRPRPFTFPRP	-0.325
RRIRDRPPRLPRPRPRPPKLPRP	0.0369
RRIRFRPPRLPRPRPRPCFHPRP	-0.894
RRIRMRPPRLPRPRPRPTHHPRP	0.316
RRIRLRPPRLPRPRPRPLYLPRP	-0.837
RRIRYRPPRLPRPRPRPMDLPRP	-0.0912
RRIRKRPPRLPRPRPRPHLEPRP	-0.0191
RRIRKRPPRLPRPRPRPDGEPRP	1.16
RRIRWRPPRLPRPRPRPVVYPRP	-0.228
RRIRWRPPRLPRPRPRPWDTPRP	0.0106
RRIRCRPPRLPRPRPRPSFDPRP	-0.282
RRIRKRPPRLPRPRPRPTKLPRP	0.246
RRIRLRPPRLPRPRPRPYSTPRP	-1.09
RRIRFRPPRLPRPRPRPPTPPRP	0.908
RRIRLRPPRLPRPRPRPTVPPRP	-0.0925
RRIRHRPPRLPRPRPRPMIPPRP	0.132
RRIRIRPPRLPRPRPRPKNPPRP	-0.439
RRIRKRPPRLPRPRPRPAAVPRP	0.188
RRIRFRPPRLPRPRPRPCYCPRP	-0.064

Sequence	shrunken log2 fold change
RRIRCRPPRLPRPRPRPAACPRP	0.202
RRIRVRPPRLPRPRPRPTHQPRP	0.209
RRIRIRPPRLPRPRPRPIWIPRP	-0.269
RRIRWRPPRLPRPRPRPYPIPRP	0.0625
RRIRIRPPRLPRPRPRPDDLPRP	0.118
RRIRHRPPRLPRPRPRPPKCPRP	0.145
RRIRVRPPRLPRPRPRPKQTPRP	-0.0483
RRIRFRPPRLPRPRPRPGLWPRP	0.526
RRIRIRPPRLPRPRPRPTECPRP	0.00877
RRIRSRPPRLPRPRPRPHWCPRP	-0.125
RRIRARPPRLPRPRPRPCVGPRP	2.43
RRIRIRPPRLPRPRPRPNWNPRP	-0.388
RRIRARPPRLPRPRPRPRHDPRP	0.128
RRIRCRPPRLPRPRPRPFSQPRP	-0.209
RRIRARPPRLPRPRPRPVWRPRP	0.873
RRIRKRPPRLPRPRPRPFHRPRP	-0.0303
RRIRLRPPRLPRPRPRPFTFPRP	0.0545
RRIRCRPPRLPRPRPRPMIDPRP	0.0647
RRIRVRPPRLPRPRPRPQQQPRP	0.0503
RRIRNRPPRLPRPRPRPHSKPRP	-0.117
RRIRCRPPRLPRPRPRPRKAPRP	0.578
RRIRIRPPRLPRPRPRPCFNPRP	-0.87
RRIRSRPPRLPRPRPRPLIAPRP	0.0475
RRIRCRPPRLPRPRPRPKHEPRP	-0.000422
RRIRVRPPRLPRPRPRPQEPPRP	0.0426

Sequence	shrunken log2 fold change
RRIRGRPPRLPRPRPRPYRHPRP	0.161
RRIRVRPPRLPRPRPRPEDAPRP	0.801
RRIRRRPPRLPRPRPRPAGDPRP	0.563
RRIRCRPPRLPRPRPRPMEAPRP	-0.0255
RRIRQRPPRLPRPRPRPQVCPRP	0.0103
RRIRVRPPRLPRPRPRPNKHPRP	-0.189
RRIRNRPPRLPRPRPRPMRYPRP	-0.154
RRIRCRPPRLPRPRPRPKEWPRP	0.0878
RRIRTRPPRLPRPRPRPVNMPRP	-0.192
RRIRMRPPRLPRPRPRPPGAPRP	2.06
RRIRIRPPRLPRPRPRPCCLPRP	-0.478
RRIRMRPPRLPRPRPRPVGDPRP	0.173
RRIRWRPPRLPRPRPRPDESPRP	-0.0029
RRIRLRPPRLPRPRPRPQCTPRP	0.0199
RRIRLRPPRLPRPRPRPWREPRP	-0.018
RRIRMRPPRLPRPRPRPCVIPRP	-0.04
RRIRPRPPRLPRPRPRPLFEPRP	0.163
RRIRKRPPRLPRPRPRPFFAPRP	0.645
RRIRPRPPRLPRPRPRPQEDPRP	-0.0602
RRIRGRPPRLPRPRPRPERKPRP	0.92
RRIRMRPPRLPRPRPRPLTFPRP	-0.291
RRIRWRPPRLPRPRPRPGPGPRP	0.899
RRIRPRPPRLPRPRPRPFSAPRP	0.0672
RRIRERPPRLPRPRPRPSCNPRP	-0.0433
RRIRFRPPRLPRPRPRPIYQPRP	-0.21

Sequence	shrunken log2 fold change
RRIRFRPPRLPRPRPRPMSIPRP	-0.354
RRIRGRPPRLPRPRPRPQFFPRP	-0.0486
RRIRLRPPRLPRPRPRPFCQPRP	-0.078
RRIRWRPPRLPRPRPRPWVLPRP	0.287
RRIRIRPPRLPRPRPRPPKLPRP	0.0517
RRIRCRPPRLPRPRPRPIKQPRP	-0.062
RRIRARPPRLPRPRPRPPDAPRP	1.25
RRIRSRPPRLPRPRPRPENDPRP	-0.0386
RRIRERPPRLPRPRPRPPVRPRP	0.538
RRIRHRPPRLPRPRPRPEWTPRP	0.0291
RRIRPRPPRLPRPRPRPATSPRP	0.358
RRIRKRPPRLPRPRPRPRVGPRP	0.279
RRIRPRPPRLPRPRPRPPMAPRP	0.338
RRIRQRPPRLPRPRPRPTGMPRP	0.475
RRIRDRPPRLPRPRPRPHKYPRP	-0.116
RRIRKRPPRLPRPRPRPVCWPRP	0.897
RRIRLRPPRLPRPRPRPQQAPRP	-0.0623
RRIRHRPPRLPRPRPRPRTAPRP	0.264
RRIRMRPPRLPRPRPRPIYFPRP	-0.141
RRIRNRPPRLPRPRPRPTKKPRP	0.0702
RRIRARPPRLPRPRPRPQNRPRP	0.495
RRIRVRPPRLPRPRPRPVRIPRP	0.337
RRIRTRPPRLPRPRPRPEEEPRP	0.385
RRIRQRPPRLPRPRPRPVHVPRP	-0.0167
RRIRSRPPRLPRPRPRPFSLPRP	-0.506
